By Kd is commonly meant the free concentration of one partner at which half of the binding sites on the other are occupied at equilibrium, for simple one-to-one binding. Lower therefore signals higher affinity.

In assay [1] the target is T1, fH6-7 (factor H CCP domains 6-7) (UniProt P08603 321-443).
T1 construct: domain: fH6-7; Analyte in SPR, 0.5 nM-32 nM
T1 sequence: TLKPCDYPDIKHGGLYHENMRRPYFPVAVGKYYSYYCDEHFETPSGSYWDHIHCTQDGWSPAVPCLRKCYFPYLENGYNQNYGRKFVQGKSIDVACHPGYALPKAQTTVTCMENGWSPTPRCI
In words: SPR, Biacore 3000, protein on CM5 chip, fH6-7 as analyte. Background: SPR reads the build-up and loss of mass on a sensor chip optically.

For assay [2], the target named is T1, fH6-7 (factor H CCP domains 6-7). In words: SPR, Biacore 3000, protein on CM5 chip.
Assay [3] deals with T2, factor H (fH), full length (human, UniProt P08603 19-1231).
T2 construct: mature; Far western used normal human serum diluted 1:100 as the source of fH; also called full length fH; purified full length fH
In words: ELISA, coated protein, purified full length fH. For orientation: ELISA stands for enzyme-linked immunosorbent assay.

T2 sequence (P08603 19-1231): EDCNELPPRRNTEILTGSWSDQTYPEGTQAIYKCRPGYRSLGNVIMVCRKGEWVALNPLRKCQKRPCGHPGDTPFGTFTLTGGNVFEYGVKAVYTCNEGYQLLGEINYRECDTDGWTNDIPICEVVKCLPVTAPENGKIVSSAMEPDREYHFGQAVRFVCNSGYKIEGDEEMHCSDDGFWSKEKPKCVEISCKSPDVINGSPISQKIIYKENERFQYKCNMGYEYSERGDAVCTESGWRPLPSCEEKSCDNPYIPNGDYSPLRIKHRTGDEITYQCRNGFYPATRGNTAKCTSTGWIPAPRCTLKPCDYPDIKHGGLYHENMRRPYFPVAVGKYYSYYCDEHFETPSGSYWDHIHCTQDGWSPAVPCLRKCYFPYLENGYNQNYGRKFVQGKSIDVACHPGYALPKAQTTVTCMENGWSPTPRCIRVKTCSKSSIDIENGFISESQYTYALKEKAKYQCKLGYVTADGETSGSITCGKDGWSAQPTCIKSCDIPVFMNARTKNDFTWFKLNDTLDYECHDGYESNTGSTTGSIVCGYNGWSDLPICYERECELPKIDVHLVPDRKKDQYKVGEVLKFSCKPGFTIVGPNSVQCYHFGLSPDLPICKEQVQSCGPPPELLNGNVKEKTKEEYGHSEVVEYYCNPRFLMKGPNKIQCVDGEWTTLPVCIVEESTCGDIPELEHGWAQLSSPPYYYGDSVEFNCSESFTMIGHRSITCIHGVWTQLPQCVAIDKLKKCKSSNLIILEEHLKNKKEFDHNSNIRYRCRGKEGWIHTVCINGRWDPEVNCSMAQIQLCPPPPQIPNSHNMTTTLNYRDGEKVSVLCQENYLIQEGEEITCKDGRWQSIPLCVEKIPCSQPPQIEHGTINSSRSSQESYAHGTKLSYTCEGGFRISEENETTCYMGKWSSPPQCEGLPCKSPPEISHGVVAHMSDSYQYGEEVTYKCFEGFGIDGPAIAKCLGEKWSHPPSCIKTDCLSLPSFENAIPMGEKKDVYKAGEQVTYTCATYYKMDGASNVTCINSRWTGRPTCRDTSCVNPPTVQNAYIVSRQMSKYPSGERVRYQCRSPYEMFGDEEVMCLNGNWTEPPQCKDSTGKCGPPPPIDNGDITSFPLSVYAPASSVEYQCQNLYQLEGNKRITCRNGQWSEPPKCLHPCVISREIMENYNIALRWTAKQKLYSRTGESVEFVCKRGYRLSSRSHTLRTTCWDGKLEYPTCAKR

B1: Ghfp^M4 (R288H) (other)
chain: DKGLKSLTLEASIPQNGTLTLSAQGAEKTFKAGGKDNSLNTGKLKNDKISRFDFVQKIEVDGQTITLASGEFQIYKQDHSAVVALRIEKINNPDKIDSLINQRSFLVSDLGGEHTAFNQLPDGKAEYHGKAFSSDDADGKLTYTIDFAAKQGHGKIEHLKTPEQNVELASAELKADEKSHAVILGDTRYGGEEKGTYHLALFGDRAQEIAGSATVKIGEKVHEIGIADKQ
notes: Text prints R288H (numbering according to fHbp V1.1 structure)
Turning to B1, the dissociation constant (Kd) in assay [1] came to 16 nM. This counts as double-digit nanomolar.

B2: Ghfp^M5 (D318G) (other)
chain: DKGLKSLTLEASIPQNGTLTLSAQGAEKTFKAGGKDNSLNTGKLKNDKISRFDFVQKIEVDGQTITLASGEFQIYKQDHSAVVALRIEKINNPDKIDSLINQRSFLVSDLGGEHTAFNQLPDGKAEYHGKAFSSDDADGKLTYTIDFAAKQGHGKIEHLKTPEQNVELASAELKADEKSHAVILGDTRYGGEEKGTYRLALFGDRAQEIAGSATVKIGEKVHEIGIAGKQ
notes: Text prints D318G (fHbp V1.1 structure numbering)
In the case of B2, the values for the binding result in assay [2] and in assay [3] were “no binding (tested: fH6-7 0.5 nM-32 nM)” and “no binding”, respectively.

B3: Ghfp^M4-5 (R288H/D318G) (other)
chain: DKGLKSLTLEASIPQNGTLTLSAQGAEKTFKAGGKDNSLNTGKLKNDKISRFDFVQKIEVDGQTITLASGEFQIYKQDHSAVVALRIEKINNPDKIDSLINQRSFLVSDLGGEHTAFNQLPDGKAEYHGKAFSSDDADGKLTYTIDFAAKQGHGKIEHLKTPEQNVELASAELKADEKSHAVILGDTRYGGEEKGTYHLALFGDRAQEIAGSATVKIGEKVHEIGIAGKQ
notes: Text prints R288H/D318G (fHbp V1.1 structure numbering)
Regarding B3, binding in assay [1] was characterised by a dissociation constant (Kd) of 2 nM.

The values are drawn from patent publication US20160030544A1 (ISIS INNOVATION, published 2016).
